Consider one substance from patent US20230348560A1.

In this assay the target is HLA-G1 isoform stably expressed on THP1 cells (human) (UniProt P17693). Description: cell-based or functional assay.

In the case of “full length ILT2 (pNT-110 SFG-ILT2-T2A-ΔCD19) (from UniProt Q8NHL6 24-650) (receptor)”, the luciferase activity of THP1-HLA-G1-GFPffluc targets after 24 h coculture (E:T 5:1 and 1:1) was above 100000 light units.
